{"source": "patent US20250129169A1", "about": "(Stanford University, published 2025)", "binders": {"B1": {"name": "γc-VHH6 (VHH)", "VHH": "QVQLQESGGGSVQAGGSLRLSCAASGYTYRDYYMGWFRQAPGREREGVASIYTRGSREGSTRYSSSVEGRFTITLDTAKNTLYLQMNSLKPEDTAMYYCAADDRTWLPRVQLGGPRENEYNYWGQGTQVTVSS", "notes": "also called γC nanobody clone 6"}, "B2": {"name": "γc-VHH3 (VHH)", "VHH": "QVQLQESGGGSVQAGGSLRLSCAASGYTYSKNWYMGWFRQTPGKEREGVAVIAYDDWPTYADSVKGRFTISKDNTKNTLYLQMNSLKPEDTAMYYCAARQLGGDYCYFPNLSRFCYNYWGQGTQVTVSS", "notes": "also called γC nanobody clone 3"}, "B3": {"name": "γ scFv2 (P2B9) (scFv)", "scFv (VH-linker-VL)": "QVQLQESGPGLVKPSETLSLTCTVSGGSISSSSYYWGWIRQPPGKGLEWIGSIYYSGSTYYNPSLKSRVTISVDTSKNQFSLKLSSVTAADTAVYYCAGDILTGYALDYWGQGTLVTVSSGGGGSGGGGSGGGGSSYELTQPPSMSVSPGQTARITCSGDALPKQFAFWYQQKPGQAPVLVIYKDTERPSGIPERFSGSSSGTTVTLTITGVQAEDEADYYCQSPDSSGTVEVFGGGTKLTVL", "notes": "also called γc-scFv2 (P2B9)"}, "B4": {"name": "γc-VHH4 (VHH)", "VHH": "QVQLQESGGGSVQAGGSLRLSCTASGFTFNEANHMGWYRQAPGNECELVSTISSDGTTYYPDSVKGRFTISQDNAKKTAFLQMNSLKPEDTAVYYCAADQSRRGSLCLGQGTQVTVSS", "notes": "also called γC nanobody clone 4"}}, "key": {"Human γC ECD [1]": {"biological_target": "T1, Human γC ECD (human, UniProt P31785 23-262, biotinylated (site not stated))", "T1 construct": "extracellular domain; Biotinylated and held on a streptavidin chip for SPR; also called common gamma; biotinylated human γC ECD", "T1 sequence (looked up)": "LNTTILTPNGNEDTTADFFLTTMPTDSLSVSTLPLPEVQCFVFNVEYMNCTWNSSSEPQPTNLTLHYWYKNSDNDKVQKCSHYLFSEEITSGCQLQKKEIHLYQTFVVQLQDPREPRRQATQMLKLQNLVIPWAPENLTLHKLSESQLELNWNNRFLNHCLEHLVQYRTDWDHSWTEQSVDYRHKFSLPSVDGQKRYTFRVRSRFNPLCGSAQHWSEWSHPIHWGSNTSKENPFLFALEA", "test": "SPR, steady-state binding affinity (drawn table)", "experimental": "(§1) FIGS. 2A-2H show data on SPR validation of IL-2Rβ- and γc-VHHs and agonist screening in YT-1 cells. (A) Biotinylated human IL-2Rβ ECD was immobilized on a streptavidin (SA) sensor chip, and varying concentrations of IL-2Rβ VHH were applied to determine binding parameters using SPR. Sensorgrams are shown on the left, and steady state binding is plotted on the right. Binding affinities (KD) were determined by fitting to steady state response values. (B) Biotinylated human γC ECD was immobilized on a SA chip, and varying concentrations of γc VHH were flowed over the chip to determine binding. […] (C) Steady-state binding affinities between VHH/scFv and IL-2R, as determined by SPR. Values for scFv affinities are derived from patent US20160367664A1 (Wang et al., 2016). (D) Table of pSTAT5 Eₘₐₓ values for the indicated VHH pairings. (E) Tuning IL-2 activity via generation of acid-base VHH zipper pairings. (F) Tuning IL-2 activity via generation of 2:1 β:γc or γc:β stoichiometries. VHH binding modules are linked together in a tripartite (β-γc-β or γc-β-γc) manner. Graph axes are represented as in (E). (G) Dose-response relationship of pSTAT5 geometric mean flurorescence intensities (gMFI) of selected agonists. (H) Corresponding histograms showing STAT5 activity in YT-1 cells treated with human IL-2 vs. IL-2 surrogate agonists at saturating concentration."}, "Human γC ECD [2]": {"biological_target": "T1, Human γC ECD", "test": "SPR; biotinylated human γc ECD on streptavidin chip, VHH as analyte; KD from fit to steady-state responses [Cont.]", "experimental": "as §1"}, "Human γC ECD [3]": {"biological_target": "T1, Human γC ECD", "test": "drawn table of affinities; the scFv value is derived from patent US20160367664A1 (Wang et al., 2016), not measured in this filing"}}, "data": [{"binder": "B1", "values": [{"measurement": "Kd", "setting": "Human γC ECD [1]", "value": 69, "unit": "nM"}, {"measurement": "Kd", "setting": "Human γC ECD [2]", "value": 68.6, "unit": "nM"}]}, {"binder": "B2", "values": [{"measurement": "Kd", "setting": "Human γC ECD [1]", "value": 7, "unit": "nM"}, {"measurement": "Kd", "setting": "Human γC ECD [2]", "value": 6.7, "unit": "nM"}]}, {"binder": "B3", "values": [{"measurement": "Kd", "setting": "Human γC ECD [3]", "value": 79, "unit": "nM"}]}, {"binder": "B4", "values": [{"measurement": "Kd", "setting": "Human γC ECD [1]", "value": 20, "unit": "nM"}, {"measurement": "Kd", "setting": "Human γC ECD [2]", "value": 19.7, "unit": "nM"}]}]}
